Measurements from IntAct's records for PubMed 17314099.

B1: Serine-threonine kinase receptor-associated protein (Homo sapiens), Q9Y3F4 (parent)
chain: MAMRQTPLTCSGHTRPVVDLAFSGITPYGYFLISACKDGKPMLRQGDTGDWIGTFLGHKGAVWGATLNKDATKAATAAADFTAKVWDAVSGDELMTLAHKHIVKTVDFTQDSNYLLTGGQDKLLRIYDLNKPEAEPKEISGHTSGIKKALWCSEDKQILSADDKTVRLWDHATMTEVKSLNFNMSVSSMEYIPEGEILVITYGRSIAFHSAVSLDPIKSFEAPATINSASLHPEKEFLVAGGEDFKLYKYDYNSGEELESYKGHFGPIHCVRFSPDGELYASGSEDGTLRLWQTVVGKTYGLWKCVLPEEDSGELAKPKIGFPETTEEELEEIASENSDCIFPSAPDVKA

Key:
Conditions in all cases: with ndka_human NME1, P15531
Sequence of ndka_human NME1, P15531 (P15531 whole entry): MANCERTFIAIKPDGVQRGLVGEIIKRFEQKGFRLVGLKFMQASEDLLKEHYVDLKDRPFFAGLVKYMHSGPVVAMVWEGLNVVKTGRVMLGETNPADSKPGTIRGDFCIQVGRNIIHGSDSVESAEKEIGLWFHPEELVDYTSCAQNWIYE

[1] = variants of: B1
[2] = variants of: B1; remark: listed apart in the source
[3] = variants of: B1; remark: listed apart in the source

Row | Variant | effect of a mutation on the interaction [1] | effect of a mutation on the interaction [2] | effect of a mutation on the interaction [3]
1 | MAMRQTPLTCSGHTRPVVDLAFSGITPYGYFLISACKDGKPMLRQGDTGDWIGTFLGHKGAVWGATLNKDATKAATAAADFTAKVWDAVSGDELMTLAHKHIVKTVDFTQDSNYLLTGGQDKLLRIYDLNKPEAEPKEISGHTSGIKKALWSSEDKQILSADDKTVRLWDHATMTEVKSLNFNMSVSSMEYIPEGEILVITYGRSIAFHSAVSLDPIKSFEAPATINSASLHPEKEFLVAGGEDFKLYKYDYNSGEELESYKGHFGPIHCVRFSPDGELYASGSEDGTLRLWQTVVGKTYGLWKCVLPEEDSGELAKPKIGFPETTEEELEEIASENSDCIFPSAPDVKA [C152S] | decreasing interaction | disrupting interaction | 
2 | MAMRQTPLTCSGHTRPVVDLAFSGITPYGYFLISACKDGKPMLRQGDTGDWIGTFLGHKGAVWGATLNKDATKAATAAADFTAKVWDAVSGDELMTLAHKHIVKTVDFTQDSNYLLTGGQDKLLRIYDLNKPEAEPKEISGHTSGIKKALWSSEDKQILSADDKTVRLWDHATMTEVKSLNFNMSVSSMEYIPEGEILVITYGRSIAFHSAVSLDPIKSFEAPATINSASLHPEKEFLVAGGEDFKLYKYDYNSGEELESYKGHFGPIHSVRFSPDGELYASGSEDGTLRLWQTVVGKTYGLWKCVLPEEDSGELAKPKIGFPETTEEELEEIASENSDCIFPSAPDVKA [C152S;C270S] | disrupting interaction |  | decreasing interaction
3 | MAMRQTPLTCSGHTRPVVDLAFSGITPYGYFLISACKDGKPMLRQGDTGDWIGTFLGHKGAVWGATLNKDATKAATAAADFTAKVWDAVSGDELMTLAHKHIVKTVDFTQDSNYLLTGGQDKLLRIYDLNKPEAEPKEISGHTSGIKKALWCSEDKQILSADDKTVRLWDHATMTEVKSLNFNMSVSSMEYIPEGEILVITYGRSIAFHSAVSLDPIKSFEAPATINSASLHPEKEFLVAGGEDFKLYKYDYNSGEELESYKGHFGPIHSVRFSPDGELYASGSEDGTLRLWQTVVGKTYGLWKCVLPEEDSGELAKPKIGFPETTEEELEEIASENSDCIFPSAPDVKA [C270S] | decreasing interaction | disrupting interaction | 
